Experimental data published in paper PMC2921341, “Interaction of Serum- and Glucocorticoid Regulated Kinase 1 (SGK1) with the WW-Domains of Nedd4-2 Is Required for Epithelial Sodium Channel Regulation” (PLoS ONE, 2010).

What was measured:
Nedd4-2 [1] = conditions: previous work; ref [19]; cited from earlier work
From the text: There has been debate in the literature over detection of an interaction between SGK and Nedd4-2 in vitro, and the interaction is currently not understood at the molecular level. SGK contains a PY motif (PPFY), which might mediate interaction with the WW-domains of Nedd4/Nedd4-2. […] Two previous in vitro binding studies have asked whether the WW-domains of Nedd4-2 interact with an SGK peptide containing the PY motif. […] To test the hypothesis that the interaction of the Nedd4-2 WW-domains with the SGK PY motif is required for SGK to influence Nedd4-2 function, we co-expressed α-, β- and γENaC in FRT epithelia with either wild type SGK or SGKY298A along with increasing amounts of Nedd4-2, and measured the amiloride-sensitive short circuit current. Consistent with our previous work, we fo ...

Nedd4-2 [2] = conditions: SGK lacking its PY motif; ref [20]; cited from earlier work
ENaC [3] = assay: Amiloride-sensitive short circuit current in FRT epithelia with ENaC: Nedd4-2 dose response with SGK, SGKY298A or GFP; format: cell-based; conditions: for effect on Nedd4-2 dose-response relationship for ENaC inhibition (in words): FRT epithelia with α-, β-, γENaC, 0.6 µg SGK construct, Nedd4-2 0–0.2 µg, amiloride 10 µM, n = 18
Protocol: To test the hypothesis that the interaction of the Nedd4-2 WW-domains with the SGK PY motif is required for SGK to influence Nedd4-2 function, we co-expressed α-, β- and γENaC in FRT epithelia with either wild type SGK or SGKY298A along with increasing amounts of Nedd4-2, and measured the amiloride-sensitive short circuit current.
Figure 4 The SGK PY motif is necessary for SGK to inhibit Nedd4-2. Amiloride-sensitive short-circuit sodium current (relative to 0 µg of Nedd4-2) in FRT cells 48 hr after transfection with α-, β- and γENaC and SGK (closed circles) or SGKY298A (open circles) or GFP (closed squares), in the presence of increasing amounts of Nedd4-2, n = 18. Nedd4-2 is expressed as a fraction of the amount of ENaC cDNA. Expression of SGK and SGKY298A was reported in Figure 1B of Snyder et al..
Fischer rat thyroid (FRT) cells were grown on permeable filter supports (Snapwell™, Corning USA or Millicell PCF, both with […] pore size, 12 mm diameter) in F-12 Coon's media with 5% fetal calf serum (Sigma), 100 U/ml penicillin, and 100 µg/ml streptomycin at 37°C. One day after seeding, cells were cotransfected with α-, β- and γENaC (0.07 µg each), 0.6 µg wildtype or mutant SGK, and 0–0.2 µg Nedd4-2 (Fig. 4 only). Total DNA was held constant (1 µg/millicell) using cloning vector DNA. The plasmids were mixed with Lipofectamine 2000 (Invitrogen) or TFX 50 (Promega, Madison, WI; 7.9 µg/millicell) in serum free F12 Coon's media for 15 minutes and transferred to the apical surface of the monolayer. One-six hours later, the apical media was replaced with F-12 Coon's media containing 5% fetal calf serum and amiloride (10 µM). Short-circuit current was measured […] after transfection in modified Ussing chambers connected to a voltage clamp (South Campus Electronics, Dunedin, New Zealand or Warner Instruments). The apical and basolateral surfaces were bathed in (in mM) 135 NaCl, 1.2 CaCl2, 1.2 MgCl2, 2.4 K2HPO4, 0.6 KH2PO4, 10 HEPES, pH 7.4, at 37°C and bubbled with O2. Amiloride-sensitive short-circuit current (Isc-amiloride) was determined as the difference in current with and without amiloride (10 µM) in the apical bathing solution. Data are presented as relative Isc-amiloride (Isc-amiloride relative) that was obtained by normalizing the Isc-amiloride to that of control cells transfected with αβγENaC in the same experiment. Transepithelial resistance (Rt) was monitored by applying repetitive voltage potential pulses (5 mV for 1 sec at 120 sec intervals) across the epithelium.

Nedd4 = conditions: in vitro studies; ref [19]; cited from earlier work
From the text: There has been debate in the literature over detection of an interaction between SGK and Nedd4-2 in vitro, and the interaction is currently not understood at the molecular level. SGK contains a PY motif (PPFY), which might mediate interaction with the WW-domains of Nedd4/Nedd4-2. […] Two previous in vitro binding studies have asked whether the WW-domains of Nedd4-2 interact with an SGK peptide containing the PY motif. One study used surface plasmon resonance and ...

ENaC [4] = assay: Amiloride-sensitive short circuit current in FRT epithelia transfected with α-, β- and γENaC; format: cell-based; conditions: serum-containing and serum-free media gave similar results, amiloride 10 µM, n = 4
Protocol: (§1) SGK is activated by phosphorylation, via a phosphatidylinositide 3-kinase (PI3K)-dependent pathway, and SGK is then able to phosphorylate substrates such as Nedd4-2. Although we were able to detect interaction of Nedd4-2 WW-domains with wildtype SGK (Fig. 1B, C), we hypothesized that an activated form of SGK might have a higher affinity for Nedd4-2. Therefore GST interaction experiments were performed comparing the binding of wildtype SGK and activated SGK (SGKS422D) to isolated Nedd4-2 WW-domains. SGKS422D appeared to run more slowly compared to SGK, consistent with it representing a phosphorylated form of SGK [8]. […] To ask if SGKS422D has an altered effect on Na^+ transport, we measured the amiloride-sensitive short circuit current in Fischer rat thyroid (FRT) epithelia transfected with α-, β-, and γENaC and either wildtype or activated SGK (Fig. 3C). […] Instead, increased binding of SGKS422D to Nedd4-2 may be a factor in the improved ability of SGKS422D to increase amiloride-sensitive current.
(§2) Figure 3 SGKS422D binding to Nedd4-2 and stimulation of ENaC is enhanced compared to wildtype SGK. (A) SGK-FLAG or SGKS422D-FLAG were expressed in COS7 cells. […] After washing the beads, the bound proteins were eluted and analyzed by SDS-PAGE and western blotting with anti-FLAG. […] (B) The resulting bands were quantified by densitometry and normalized to total expression of either SGK or SGKS422D. […]

Nedd4-2 WW-domains = assay: GST interaction experiments, wildtype versus activated SGK on Nedd4-2 WW-domains; format: binding, human; conditions: GST pulldown with 50 µg WW2, WW3 or WW2–3 fusion, COS7 lysates, densitometry normalized to expression; n = 9 for WW2 and WW3, n = 6 for WW2–3
Protocol: as §1, §2

GST = GST interaction experiments, GST alone (control); format: binding; conditions: GST pulldown control, COS7 lysates, Fig. 3A
Protocol: as §1, §2

| Molecule | binding to full length Nedd4-2 (in words) (Nedd4-2 [1]) | phosphorylation of Nedd4-2 (in words) (Nedd4-2 [2]) | stimulation of ENaC in the presence of Nedd4-2 (in words) (ENaC [3]; FRT epithelia with ENaC and Nedd4-2) | effect on Nedd4-2 dose-response relationship for ENaC inhibition (in words) (ENaC [3]) | interaction with Nedd4 (in words) (Nedd4) | effect on amiloride-sensitive short circuit current, Isc-amiloride (in words) (ENaC [4]) | binding to Nedd4-2 WW-domains compared with wildtype SGK (in words) (Nedd4-2 WW-domains) | binding to GST alone (in words) (GST) |
| --- | --- | --- | --- | --- | --- | --- | --- | --- |
| SGKY298A: SGK that contains a mutated PY motif (protein, left off: FLAG, end not stated, state not stated, SGK that contains a mutated PY motif) MTVKTEAAKGTLTYSRMRGMVAILIAFMKQRRMGLNDFIQKIANNSYACKHPEVQSILKISQPQEPELMNANPSPPPSPSQQINLGPSSNPHAKPSDFHFLKVIGKGSFGKVLLARHKAEEVFYAVKVLQKKAILKKKEEKHIMSERNVLLKNVKHPFLVGLHFSFQTADKLYFVLDYINGGELFYHLQRERCFLEPRARFYAAEIASALGYLHSLNIVYRDLKPENILLDSQGHIVLTDFGLCKENIEHNSTTSTFCGTPEYLAPEVLHKQPYDRTVDWWCLGAVLYEMLYGLPPFASRNTAEMYDNILNKPLQLKPNITNSARHLLEGLLQKDRTKRLGAKDDFMEIKSHVFFSLINWDDLINKKITPPFNPNVSGPNDLRHFDPEFTEEPVPNSIGKSPDSVLVTASVKEAAEAFLGFSYAPPTDSFL | not able to bind full length Nedd4-2 | less able to phosphorylate Nedd4-2 | failed to stimulate ENaC activity in the presence of Nedd4-2 | had no effect on the Nedd4-2 dose-response relationship |  |  |  |  |
| SGK: Serum- and Glucocorticoid regulated Kinase isoform 1 (protein, UniProt O00141 1-431, looked up) Serine/threonine-protein …: MTVKTEAAKGTLTYSRMRGMVAILIAFMKQRRMGLNDFIQKIANNSYACKHPEVQSILKISQPQEPELMNANPSPPPSPSQQINLGPSSNPHAKPSDFHFLKVIGKGSFGKVLLARHKAEEVFYAVKVLQKKAILKKKEEKHIMSERNVLLKNVKHPFLVGLHFSFQTADKLYFVLDYINGGELFYHLQRERCFLEPRARFYAAEIASALGYLHSLNIVYRDLKPENILLDSQGHIVLTDFGLCKENIEHNSTTSTFCGTPEYLAPEVLHKQPYDRTVDWWCLGAVLYEMLYGLPPFYSRNTAEMYDNILNKPLQLKPNITNSARHLLEGLLQKDRTKRLGAKDDFMEIKSHVFFSLINWDDLINKKITPPFNPNVSGPNDLRHFDPEFTEEPVPNSIGKSPDSVLVTASVKEAAEAFLGFSYAPPTDSFL | Nedd4 and Nedd4-2 interact with wildtype SGK |  |  | reduced inhibition, shifting the dose-response relationship to the right | Nedd4 and Nedd4-2 interact with wildtype SGK | stimulated Isc-amiloride significantly |  |  |
| SGKS422D: activated SGK; mutation of one of two phosphorylation sites (protein, left off: FLAG, C-terminal, kept, mutation of one of two phosphorylation sites) MTVKTEAAKGTLTYSRMRGMVAILIAFMKQRRMGLNDFIQKIANNSYACKHPEVQSILKISQPQEPELMNANPSPPPSPSQQINLGPSSNPHAKPSDFHFLKVIGKGSFGKVLLARHKAEEVFYAVKVLQKKAILKKKEEKHIMSERNVLLKNVKHPFLVGLHFSFQTADKLYFVLDYINGGELFYHLQRERCFLEPRARFYAAEIASALGYLHSLNIVYRDLKPENILLDSQGHIVLTDFGLCKENIEHNSTTSTFCGTPEYLAPEVLHKQPYDRTVDWWCLGAVLYEMLYGLPPFYSRNTAEMYDNILNKPLQLKPNITNSARHLLEGLLQKDRTKRLGAKDDFMEIKSHVFFSLINWDDLINKKITPPFNPNVSGPNDLRHFDPEFTEEPVPNSIGKSPDSVLVTASVKEAAEAFLGFDYAPPTDSFL |  |  |  |  |  | greater stimulatory effect on Isc-amiloride compared to SGK | binds Nedd4-2 WW-domains more strongly than SGK | did not bind to GST alone |
